We go through six molecules from US20070086956A1 (Bayer, published 2007).

Read-outs that look alike come from different tables or passages of the source. Where no end group is shown, it is not given here.

The target in assay [1] is T1, Factor XIa (human, UniProt P03951 19-625).
T1 construct: also called FXIa; Human FXIa
Nature of the assay: enzyme inhibition, Factor XIa 0.1 nM.

Assay [2] has as its target T2, human plasmin (human, UniProt P00747 97-810, limits assumed). Nature of the assay: enzyme inhibition, human plasmin 50 pM.
Assay [3] concerns the target T2, human plasmin. Nature of the assay: enzyme inhibition, human plasmin 50 pM, substrate GPK-AMC.
For assay [4], the target named is T3, human neutrophil elastase (human, UniProt P08246 30-247, limits assumed).
T3 sequence (looked up): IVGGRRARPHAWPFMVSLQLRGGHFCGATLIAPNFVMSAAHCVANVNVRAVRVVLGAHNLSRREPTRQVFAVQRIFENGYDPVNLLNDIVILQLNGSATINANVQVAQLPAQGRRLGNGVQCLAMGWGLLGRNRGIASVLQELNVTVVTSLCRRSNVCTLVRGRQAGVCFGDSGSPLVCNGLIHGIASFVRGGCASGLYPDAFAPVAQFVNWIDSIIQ
The assay can be described thus: enzyme inhibition, elastase. As for the experimental part:
(§1) Ki values were determined from Dixon plots of the form 1/V versus performed at two different substrate concentrations (Dixon et al., 1979).

A further assay has as its target human urokinase (human, UniProt P00749 21-431, limits assumed). The assay can be described thus: enzyme inhibition, urokinase, substrate GGR-AMC.
The target of assay [5] is T4, human plasma kallikrein (human, UniProt P03952 20-638). The assay can be described thus: enzyme inhibition, human plasma kallikrein […] nM.
T4 sequence (P03952 20-638 limits assumed): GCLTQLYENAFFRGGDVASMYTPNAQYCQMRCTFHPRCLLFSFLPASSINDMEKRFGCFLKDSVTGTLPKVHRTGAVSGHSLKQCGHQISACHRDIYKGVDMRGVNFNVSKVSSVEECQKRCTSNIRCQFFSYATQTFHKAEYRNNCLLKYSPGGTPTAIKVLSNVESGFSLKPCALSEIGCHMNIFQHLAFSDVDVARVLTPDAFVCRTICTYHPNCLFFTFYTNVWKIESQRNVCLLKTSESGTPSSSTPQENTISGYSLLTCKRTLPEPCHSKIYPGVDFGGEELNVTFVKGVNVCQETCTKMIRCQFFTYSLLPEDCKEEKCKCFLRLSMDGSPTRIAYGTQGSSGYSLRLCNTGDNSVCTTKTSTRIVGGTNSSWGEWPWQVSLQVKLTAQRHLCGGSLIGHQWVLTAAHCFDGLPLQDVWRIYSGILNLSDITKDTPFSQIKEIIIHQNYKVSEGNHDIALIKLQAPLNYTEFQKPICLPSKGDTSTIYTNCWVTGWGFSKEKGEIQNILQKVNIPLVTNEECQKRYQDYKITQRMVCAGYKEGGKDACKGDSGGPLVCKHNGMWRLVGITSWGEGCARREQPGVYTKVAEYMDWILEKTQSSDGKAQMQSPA
In assay [6] the target is T2, human plasmin. Nature of the assay: enzyme inhibition, human plasmin 50 pM. This is another data set of the same source.
For assay [7], the target named is T5, human factor Xa (human, UniProt P00742 41-179; P00742 235-488, limits assumed). The assay can be described thus: enzyme inhibition, factor Xa 0.87 nM, substrate LGR-AMC.
T5 sequence (P00742 41-179 limits assumed, chain 1 of 2): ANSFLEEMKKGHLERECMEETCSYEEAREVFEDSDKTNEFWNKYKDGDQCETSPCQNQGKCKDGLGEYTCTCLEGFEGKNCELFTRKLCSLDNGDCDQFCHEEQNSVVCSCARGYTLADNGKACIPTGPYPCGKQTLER
T5 sequence (P00742 235-488 limits assumed, chain 2 of 2): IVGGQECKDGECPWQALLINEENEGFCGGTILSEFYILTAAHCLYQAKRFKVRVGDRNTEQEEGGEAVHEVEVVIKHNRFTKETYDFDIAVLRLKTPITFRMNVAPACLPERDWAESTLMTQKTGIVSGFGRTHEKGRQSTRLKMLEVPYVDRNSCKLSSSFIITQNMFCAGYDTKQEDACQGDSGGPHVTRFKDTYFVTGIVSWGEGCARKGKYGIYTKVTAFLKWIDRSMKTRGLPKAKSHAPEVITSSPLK
The target of assay [8] is T6, Bovine chymotrypsin (bovine, UniProt P00766 1-13; P00766 16-146; P00766 149-245). Nature of the assay: enzyme inhibition, bovine chymotrypsin 5 nM.
Assay [9] concerns the target T7, human tissue kallikrein (human, UniProt P06870 25-262). Nature of the assay: enzyme inhibition, human tissue kallikrein.
Assay [10] deals with T7, human tissue kallikrein. Nature of the assay: enzyme inhibition, human tissue kallikrein 0.35 nM, substrate PFR-AMC.
The target in assay [11] is T3, human neutrophil elastase. Nature of the assay: enzyme inhibition (Dixon plot), human neutrophil elastase 19 nM, substrate AAPM-AMC. The protocol: as §1
In assay [12] the target is T6, Bovine chymotrypsin. Nature of the assay: enzyme inhibition, chymotrypsin 5 nM, substrate AAPF-pNA.
Assay [13] concerns the target T1, Factor XIa. The assay can be described thus: enzyme inhibition, factor XIa 0.1 nM, substrate Boc-Glu(OBzl)-Ala-Arg-AMC.
Assay [14] deals with T4, human plasma kallikrein. The assay can be described thus: enzyme inhibition, plasma kallikrein (apparent Ki).
Assay [15] concerns the target T8, bovine pancreatic kallikrein (bovine).
T8 construct: also called kallikrein-sepharose
The assay can be described thus: enzyme inhibition, bovine pancreatic kallikrein 92.0 pM.

In assay [16] the target is T2, human plasmin. The assay can be described thus: enzyme inhibition, human plasmin 50 pM. The source holds these as a separate data set.
For assay [17], the target named is T9, bovine trypsin (type III) (bovine, UniProt P00760 24-246). Nature of the assay: enzyme inhibition, trypsin 48.5 pM.
T9 sequence (P00760 24-246): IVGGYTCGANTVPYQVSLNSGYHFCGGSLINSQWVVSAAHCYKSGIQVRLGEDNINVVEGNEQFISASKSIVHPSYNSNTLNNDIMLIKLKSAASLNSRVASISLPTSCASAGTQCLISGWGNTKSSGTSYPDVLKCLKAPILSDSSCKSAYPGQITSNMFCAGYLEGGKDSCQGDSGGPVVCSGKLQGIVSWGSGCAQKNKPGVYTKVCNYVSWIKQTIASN
The target in assay [18] is T4, human plasma kallikrein. The assay can be described thus: enzyme inhibition, human plasma kallikrein […] nM, substrate PFR-AMC.
The target in assay [19] is T7, human tissue kallikrein. The assay can be described thus: enzyme inhibition, human tissue kallikrein 0.35 nM, substrate PFR-AMC. This is another data set of the same source.
Assay [20] has as its target T2, human plasmin. Nature of the assay: enzyme inhibition, human plasmin 50 pM, substrate GPK-AMC. The source holds these as a separate data set.
Assay [21] addresses T1, Factor XIa. The assay can be described thus: enzyme inhibition, FXIa 0.1 nM, substrate Boc-Glu(OBzl)-Ala-Arg-AMC.
For assay [22], the target named is T8, bovine pancreatic kallikrein. The assay can be described thus: enzyme inhibition, bovine pancreatic kallikrein 100 pM.
Assay [23] deals with tissue plasminogen activator (tPA), single chain form from human melanoma cell culture (human, UniProt P00750 36-562, limits assumed). The assay can be described thus: enzyme inhibition, tPA 7.5 nM, chromogenic substrate, A405. The protocol:
Inhibition of tissue plasminogen activator (tPA) was also determined as follows: tPA (single chain form from human melanoma cell culture from Sigma Chemical Co, St Louis, Mo.) was pre-incubated with inhibitor for 2 hr at room temperature in 20 mM Tris buffer pH 7.2 containing 150 mM NaCl, and 0.02% sodium azide. […] Formation of p-Nitroaniline was determined from the A405 nm measured following incubation at 37 C for 2 hr.

The target in assay [24] is T5, human factor Xa. The assay can be described thus: enzyme inhibition, factor Xa 0.87 nM.
The target of assay [25] is T9, bovine trypsin (type III). Nature of the assay: enzyme inhibition, trypsin 48.5 pM. This is another data set of the same source.
Assay [26] deals with T4, human plasma kallikrein. Nature of the assay: enzyme inhibition, human plasma kallikrein 2.5 nM.
For assay [27], the target named is T1, Factor XIa. The assay can be described thus: enzyme inhibition, factor XIa 0.1 nM.
A further assay has as its target T10, Tissue Factor VIIa.
T10 construct: also called TF/FVIIa
The assay can be described thus: enzyme inhibition, method not described.

The target of assay [28] is T2, human plasmin. The assay can be described thus: enzyme inhibition, human plasmin 50 pM. The source holds these as a separate data set.
Assay [29] deals with T7, human tissue kallikrein. Nature of the assay: enzyme inhibition, human tissue kallikrein 0.35 nM, substrate PFR-AMC. The source holds these as a separate data set.

T7 sequence (P06870 25-262 limits assumed): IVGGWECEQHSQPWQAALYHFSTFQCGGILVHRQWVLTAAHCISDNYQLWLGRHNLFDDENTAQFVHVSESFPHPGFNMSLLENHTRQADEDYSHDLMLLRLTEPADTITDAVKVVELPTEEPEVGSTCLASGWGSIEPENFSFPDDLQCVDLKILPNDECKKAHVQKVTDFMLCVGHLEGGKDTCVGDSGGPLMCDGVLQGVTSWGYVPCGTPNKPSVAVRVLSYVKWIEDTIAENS
T2 sequence (P00747 97-810 limits assumed): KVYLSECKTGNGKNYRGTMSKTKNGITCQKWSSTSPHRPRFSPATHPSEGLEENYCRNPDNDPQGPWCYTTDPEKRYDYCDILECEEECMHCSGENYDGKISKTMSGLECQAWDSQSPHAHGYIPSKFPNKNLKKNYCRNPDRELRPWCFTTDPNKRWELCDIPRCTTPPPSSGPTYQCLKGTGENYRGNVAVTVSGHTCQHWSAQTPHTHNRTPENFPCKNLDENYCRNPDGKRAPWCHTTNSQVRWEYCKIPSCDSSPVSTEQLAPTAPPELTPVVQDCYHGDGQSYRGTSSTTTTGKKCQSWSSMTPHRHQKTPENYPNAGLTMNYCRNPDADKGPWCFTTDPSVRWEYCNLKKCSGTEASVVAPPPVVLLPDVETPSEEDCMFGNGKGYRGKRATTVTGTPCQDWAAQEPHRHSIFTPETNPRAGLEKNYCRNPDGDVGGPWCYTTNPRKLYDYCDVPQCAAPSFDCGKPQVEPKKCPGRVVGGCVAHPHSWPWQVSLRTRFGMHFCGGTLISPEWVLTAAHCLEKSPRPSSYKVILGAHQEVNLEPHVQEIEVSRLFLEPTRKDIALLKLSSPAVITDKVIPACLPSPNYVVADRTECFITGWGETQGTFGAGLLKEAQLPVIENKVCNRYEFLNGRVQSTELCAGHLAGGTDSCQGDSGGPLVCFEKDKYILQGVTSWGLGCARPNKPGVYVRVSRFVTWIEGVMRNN
Sequence of tissue plasminogen activator (tPA), single chain form from human melanoma cell culture (P00750 36-562 limits assumed): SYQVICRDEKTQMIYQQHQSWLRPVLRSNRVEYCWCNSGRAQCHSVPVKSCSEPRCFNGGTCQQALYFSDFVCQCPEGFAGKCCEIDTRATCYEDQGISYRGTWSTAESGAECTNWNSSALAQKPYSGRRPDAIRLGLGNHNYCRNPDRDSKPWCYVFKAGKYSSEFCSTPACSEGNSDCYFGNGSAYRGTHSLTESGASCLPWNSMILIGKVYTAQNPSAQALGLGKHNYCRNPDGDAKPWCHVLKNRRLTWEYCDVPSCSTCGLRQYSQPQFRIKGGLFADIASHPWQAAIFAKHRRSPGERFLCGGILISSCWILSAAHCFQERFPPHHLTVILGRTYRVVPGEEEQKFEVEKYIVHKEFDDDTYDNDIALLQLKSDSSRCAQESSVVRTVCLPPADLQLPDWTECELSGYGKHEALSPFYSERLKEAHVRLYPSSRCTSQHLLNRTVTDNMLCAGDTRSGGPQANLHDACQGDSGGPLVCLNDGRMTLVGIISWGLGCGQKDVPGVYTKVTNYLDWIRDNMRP

B1: synthetic placental bikunin (102-159) (other)
chain: YEEYCTANAVTGPCRASFPRWYFDVERNSCNNFIYGGCRGNKNSYRSEEACMLRCFRQ
modifications: disulfide (positions not given here)
notes: also called KID2
For B1, the Ki with Factor XIa [1] was 15 nM; in the assay with human plasmin [2] it was 1.8 nM; in the assay with human plasmin [3] it was 1.8 nM; in [4], 323 nM; with human urokinase, 11000 nM; with human plasma kallikrein [5], 0.7 nM. Also, the Ki turned out to be 1.8 nM with human plasmin [6]; 274 nM with human factor Xa [7]; 0.2 nM with Bovine chymotrypsin [8]; 0.13 nM in the assay with human tissue kallikrein [9]; 0.13 nM in the assay with human tissue kallikrein [10]; 323 nM in [11]. Also, the Ki in the assay with Bovine chymotrypsin [12] was found to be 0.24 nM; with Factor XIa [13], 15 nM.

B2: placental bikunin (102-159) expressed in yeast strain SC101 (recombinant 2.4) and purified (other)
chain: B1 chain
notes: also called placental bikunin C-terminal domain
Consider B2, for which the Ki with human plasma kallikrein [14] was 0.35 nM.

B3: synthetic placental bikunin (7-64), first preparation of Example 2 (other)
chain: IHDFCLVSKVVGRCRASMPRWWYNVTDGSCQLFVYGGCDGNSNNYLTKEECLKKCATV
notes: also called placental bikunin fragment (7-64); KID1
Take B3: the Ki with Bovine chymotrypsin [8] was 0.6 nM; in assay [15], 0.4 nM.

B4: native human placental bikunin isolated from placenta (other)
chain: ADRERSIHDFCLVSKVVGRCRASMPRWWYNVTDGSCQLFVYGGCDGNSNNYLTKEECLKKCATVTENATGDLATSRNAADSSVPSAPRRQDSEDHSSDMFNYEEYCTANAVTGPCRASFPRWYFDVERNSCNNFIYGGCRGNKNSYRSEEACMLRCFRQQENPPLPLGSK
modifications: Asn 30 silent in sequencing, likely glycosylated
notes: Soluble protein purified from human placenta; A minor species started at residue 6; also called native Placental Bikunin (1-179)
In the case of B4, the Ki with human plasmin [16] was 1.9 nM; in assay [17], 0.13 nM.

B5: CHO expressed placental bikunin (1-170) (other)
chain: B4 chain
modifications: N-linked carbohydrate at Asn-30 and Asn-61 (so in the source)
notes: Glycosylated isoforms of 21-38 kDa; also called CHO Bikunin (1-170)
Consider B5, for which the Ki in the assay with human plasma kallikrein [18] was 0.5 nM; with human tissue kallikrein [19] it was 0.3 nM; with human plasmin [20], 0.2 nM; in the assay with Factor XIa [21], 1.9 nM.

B6: placental bikunin (1-170) derived from a baculovirus/Sf9 expression system (other)
chain: B4 chain
notes: Both Kunitz domains, truncated before the transmembrane segment; N-terminus ADRER confirmed, so the signal peptide was removed; also called Recombinant Bikunin; recombinant placental bikunin (1-170)
Consider B6, for which the Ki in assay [22] was 0.12 nM; in assay [23], under 60 nM; in the assay with human factor Xa [24], 180 nM; in [25], 0.064 nM; with human plasma kallikrein [26], 0.18 nM; with Factor XIa [27], 3 nM. Also, the Ki stood at 800 nM with Tissue Factor VIIa, 0.23 nM in the assay with human plasmin [28] and 0.04 nM with human tissue kallikrein [29].
